Data on four molecules can be found in patent publication US20230416365A1 (Hoffmann-La Roche, published 2023).

For assay [1], the target named is T1, biotinylated huCD28-Fc (dimeric CD28-Fc construct with a monovalent biotinylated avi-tag) (human, UniProt P10747 19-152, biotinylated at the C-terminal avi tag).
T1 construct: not shown: hum IgG1 Fc fragment with hole and PG-LALA mutations; hum IgG1 Fc fragment with knob and PG-LALA mutations
Put plainly: SPR, ProteOn XPR36, huCD28-Fc immobilised, bispecific as analyte. (Surface plasmon resonance follows binding to a sensor surface in real time, without labels.)

The target of assay [2] is T2, human CEA (CEACAM5) on cells (MKN45 cells; MV3 cells engineered to express human CEACAM5) (human, UniProt P06731 35-685).
T2 sequence: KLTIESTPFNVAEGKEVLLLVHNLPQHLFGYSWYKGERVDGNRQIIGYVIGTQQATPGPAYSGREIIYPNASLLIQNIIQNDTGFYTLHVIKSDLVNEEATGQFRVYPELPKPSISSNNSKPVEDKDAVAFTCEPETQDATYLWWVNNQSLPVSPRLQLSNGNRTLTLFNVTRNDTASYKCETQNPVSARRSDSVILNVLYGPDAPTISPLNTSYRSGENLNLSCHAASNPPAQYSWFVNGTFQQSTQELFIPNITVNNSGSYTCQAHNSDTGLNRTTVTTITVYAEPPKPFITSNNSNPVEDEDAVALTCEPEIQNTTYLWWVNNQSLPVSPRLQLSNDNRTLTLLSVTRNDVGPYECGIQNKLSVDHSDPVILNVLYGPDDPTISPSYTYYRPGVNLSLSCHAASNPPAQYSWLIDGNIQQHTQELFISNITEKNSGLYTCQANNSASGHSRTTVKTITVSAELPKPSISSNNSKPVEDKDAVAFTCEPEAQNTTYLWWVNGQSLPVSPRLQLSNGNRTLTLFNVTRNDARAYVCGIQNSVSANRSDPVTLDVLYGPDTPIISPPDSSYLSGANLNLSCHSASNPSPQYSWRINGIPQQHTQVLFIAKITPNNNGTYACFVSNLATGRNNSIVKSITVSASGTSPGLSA
Put plainly: flow cytometry on MV3 cells modified to express CEA.

For assay [3], the target named is T3, human CD28 on CHO cells (parental cell line CHO-k1 ATCC #CCL-61, modified to stably overexpress human CD28) (human, UniProt P10747 19-220).
T3 construct: also called hu CD28; CHO-hCD28
The assay is described as follows: flow cytometry on CHO-hCD28 cells. For orientation: A flow cytometer gives signals particle by particle.

The next assay has as its target T4, human BCMA on IM-9 cells (human, UniProt Q02223 1-184).
T4 construct: also called B-cell maturation antigen
T4 sequence: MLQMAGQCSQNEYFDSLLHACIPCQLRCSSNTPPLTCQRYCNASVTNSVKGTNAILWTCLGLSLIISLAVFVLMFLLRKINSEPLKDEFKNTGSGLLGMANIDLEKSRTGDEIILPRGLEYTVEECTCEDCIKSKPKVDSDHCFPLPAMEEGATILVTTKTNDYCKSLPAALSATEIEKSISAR
Put plainly: flow cytometry on IM-9 cells.

The target in assay [4] is human FAP on 3T3-huFAP cells (clone 19) (human, UniProt Q12884 1-760). Put plainly: flow cytometry on 3T3-huFAP cells, FAP-CD28 1+1 constructs, MFI (PE).
Assay [5] addresses T1, biotinylated huCD28-Fc (dimeric CD28-Fc …). Put plainly: SPR, ProteOn XPR36, huCD28-Fc on NLC chip, bispecific as analyte.
Assay [6] deals with T3, human CD28 on CHO cells (parental cell …). The assay is described as follows: flow cytometry on CHO cells stably expressing human CD28, FAP-CD28 1+1 constructs, MFI (PE).
The target is the same in assay [7]. Put plainly: binding to CHO cells expressing human CD28 (by the table's title).
The target in the next assay is T5, Hu N(A2-B2)A-avi-His (human, biotinylated at the avi tag (Example 2.2)).
T5 construct: also called hu N(A2-B2)A-avi-His B; CEACAM5-based antigen
T5 chain: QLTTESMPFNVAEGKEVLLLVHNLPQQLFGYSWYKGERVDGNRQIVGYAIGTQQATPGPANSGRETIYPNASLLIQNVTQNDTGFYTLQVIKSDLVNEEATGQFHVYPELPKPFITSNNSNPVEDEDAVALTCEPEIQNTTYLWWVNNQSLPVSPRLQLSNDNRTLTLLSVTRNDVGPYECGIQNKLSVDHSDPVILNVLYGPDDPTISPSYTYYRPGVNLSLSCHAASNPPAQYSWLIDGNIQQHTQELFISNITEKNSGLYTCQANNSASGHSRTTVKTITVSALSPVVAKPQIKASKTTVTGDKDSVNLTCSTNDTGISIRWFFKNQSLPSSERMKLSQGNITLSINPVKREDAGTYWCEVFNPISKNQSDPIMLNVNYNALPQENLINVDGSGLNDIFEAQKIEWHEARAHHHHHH
The assay is described as follows: SPR, ProteOn XPR36, antigen on NLC chip, bispecific as analyte.

B1: CEA (A5H1EL1D)-CD28 (SA_Variant 15) 1+1 format (Molecule 11C) (bispecific antibody, human IgG1, kappa, L234A L235A)
heavy 1: EIVLTQSPATLSLSPGERATLSCRASSSVTYIHWYQQKPGQAPRSWIYATSNLASGIPARFSGSGSGTDFTLTISSLEPEDFAVYYCQHWSSKPPTFGQGTKLEIKSSASTKGPSVFPLAPSSKSTSGGTAALGCLVKDYFPEPVTVSWNSGALTSGVHTFPAVLQSSGLYSLSSVVTVPSSSLGTQTYICNVNHKPSNTKVDKKVEPKSCDKTHTCPPCPAPEAAGGPSVFLFPPKPKDTLMISRTPEVTCVVVDVSHEDPEVKFNWYVDGVEVHNAKTKPREEQYNSTYRVVSVLTVLHQDWLNGKEYKCKVSNKALGAPIEKTISKAKGQPREPQVCTLPPSRDELTKNQVSLSCAVKGFYPSDIAVEWESNGQPENNYKTTPPVLDSDGSFFLVSKLTVDKSRWQQGNVFSCSVMHEALHNHYTQKSLSLSP
light 1: EVQLLESGGGLVQPGGSLRLSCAASGFTFTDYYMNWVRQAPGKGLEWLGFIGNKANAYTTEYSASVKGRFTISRDKSKNTLYLQMNSLRAEDTATYYCTRDRGLRFYFDYWGQGTTVTVSSASVAAPSVFIFPPSDEQLKSGTASVVCLLNNFYPREAKVQWKVDNALQSGNSQESVTEQDSKDSTYSLSSTLTLSKADYEKHKVYACEVTHQGLSSPVTKSFNRGEC
heavy 2: not shown
light 2: not shown
notes: huIgG1 PG-LALA CrossFab; also called P1AE4775
In the case of B1, in [1], the Kd (usually the free concentration of one partner at which half of the binding sites on the other are occupied at equilibrium, for simple one-to-one binding) was 10 nM; the koff (in general, the rate constant with which the complex falls apart) was 0.00264 s⁻¹; the kon (in general, a measure of how fast the partners come together) amounted to 259000 M⁻¹ s⁻¹. In assay [2], the EC50 (as a rule, the concentration needed to bring the measured effect to its halfway point) is 20.4 nM.

B2: anti-BCMA-CD28 (SA_Variant 15) 1+1 format (Molecule 16D) (bispecific antibody, human IgG1, kappa, L234A L235A)
heavy 1: not shown
light 1: QVQLVQSGAEVKKPGASVKVSCKASGYTFTSYYIHWVRQAPGQGLEWIGSIYPGNVQTNYNEKFKDRATLTVDTSISTAYMELSRLRSDDTAVYFCTRSHYGLDWNFDVWGQGTTVTVSSASVAAPSVFIFPPSDEQLKSGTASVVCLLNNFYPREAKVQWKVDNALQSGNSQESVTEQDSKDSTYSLSSTLTLSKADYEKHKVYACEVTHQGLSSPVTKSFNRGEC
heavy 2: EVQLLESGGGLVQPGGSLRLSCAASGFTFSSYAMNWVRQAPGKGLEWVSAITASGGSTYYADSVKGRFTISRDNSKNTLYLQMNSLRAEDTAVYYCARYWPMSLWGQGTLVTVSSASTKGPSVFPLAPSSKSTSGGTAALGCLVEDYFPEPVTVSWNSGALTSGVHTFPAVLQSSGLYSLSSVVTVPSSSLGTQTYICNVNHKPSNTKVDEKVEPKSCDKTHTCPPCPAPEAAGGPSVFLFPPKPKDTLMISRTPEVTCVVVDVSHEDPEVKFNWYVDGVEVHNAKTKPREEQYNSTYRVVSVLTVLHQDWLNGKEYKCKVSNKALGAPIEKTISKAKGQPREPQVCTLPPSRDELTKNQVSLSCAVKGFYPSDIAVEWESNGQPENNYKTTPPVLDSDGSFFLVSKLTVDKSRWQQGNVFSCSVMHEALHNHYTQKSLSLSP
light 2: EIVLTQSPGTLSLSPGERATLSCRASQSVSAYYLAWYQQKPGQAPRLLMYDASIRATGIPDRFSGSGSGTDFTLTISRLEPEDFAVYYCQQYERWPLTFGQGTKVEIKRTVAAPSVFIFPPSDRKLKSGTASVVCLLNNFYPREAKVQWKVDNALQSGNSQESVTEQDSKDSTYSLSSTLTLSKADYEKHKVYACEVTHQGLSSPVTKSFNRGEC
notes: huIgG1 PG-LALA CrossFab; also called P1AE9053
As for B2, the figures for the EC50 (in assay [3]; with human BCMA on IM-9 cells) were 9.9 nM and 3.96 nM, respectively.

B3: FAP (4B9) - CD28 (CD28(SA)_Variant 27) 1+1 (bispecific antibody, human IgG1, kappa, L234A L235A)
heavy 1: EIVLTQSPGTLSLSPGERATLSCRASQSVTSSYLAWYQQKPGQAPRLLINVGSRRATGIPDRFSGSGSGTDFTLTISRLEPEDFAVYYCQQGIMLPPTFGQGTKVEIKSSASTKGPSVFPLAPSSKSTSGGTAALGCLVKDYFPEPVTVSWNSGALTSGVHTFPAVLQSSGLYSLSSVVTVPSSSLGTQTYICNVNHKPSNTKVDKKVEPKSCDKTHTCPPCPAPEAAGGPSVFLFPPKPKDTLMISRTPEVTCVVVDVSHEDPEVKFNWYVDGVEVHNAKTKPREEQYNSTYRVVSVLTVLHQDWLNGKEYKCKVSNKALGAPIEKTISKAKGQPREPQVCTLPPSRDELTKNQVSLSCAVKGFYPSDIAVEWESNGQPENNYKTTPPVLDSDGSFFLVSKLTVDKSRWQQGNVFSCSVMHEALHNHYTQKSLSLSP
light 1: EVQLLESGGGLVQPGGSLRLSCAASGFTFSSYAMSWVRQAPGKGLEWVSAIIGSGASTYYADSVKGRFTISRDNSKNTLYLQMNSLRAEDTAVYYCAKGWFGGFNYWGQGTLVTVSSASVAAPSVFIFPPSDEQLKSGTASVVCLLNNFYPREAKVQWKVDNALQSGNSQESVTEQDSKDSTYSLSSTLTLSKADYEKHKVYACEVTHQGLSSPVTKSFNRGEC
heavy 2: not shown
light 2: not shown
notes: huIgG1 PG-LALA CrossFab 1+1; also called P1AE3140
As for B3, the binding result in assay [4] is reported as “binds”. In assay [5], this molecule displayed a Kd of 5.4 nM, a koff of 0.00121 s⁻¹ and a kon of 227000 M⁻¹ s⁻¹. In addition, in assay [6], the EC50 (read off the curve) – broadly, the concentration giving half of the maximal effect – was approximately 3 nM. Further, in assay [7], the Kd is 5.4 nM.

B4: CEA-CD28(SA) 1+1 format (Molecule M) (bispecific antibody, human IgG1, kappa, L234A L235A)
heavy 1: not shown
light 1: not shown
heavy 2: QAVLTQPASLSASPGASASLTCTLRRGINVGAYSIYWYQQKPGSPPQYLLRYKSDSDKQQGSGVSSRFSASKDASANAGILLISGLQSEDEADYYCMIWHSGASAVFGGGTKLTVLSSASTKGPSVFPLAPSSKSTSGGTAALGCLVKDYFPEPVTVSWNSGALTSGVHTFPAVLQSSGLYSLSSVVTVPSSSLGTQTYICNVNHKPSNTKVDKKVEPKSCDKTHTCPPCPAPEAAGGPSVFLFPPKPKDTLMISRTPEVTCVVVDVSHEDPEVKFNWYVDGVEVHNAKTKPREEQYNSTYRVVSVLTVLHQDWLNGKEYKCKVSNKALGAPIEKTISKAKGQPREPQVCTLPPSRDELTKNQVSLSCAVKGFYPSDIAVEWESNGQPENNYKTTPPVLDSDGSFFLVSKLTVDKSRWQQGNVFSCSVMHEALHNHYTQKSLSLSP
light 2: EVQLVESGGGLVQPGRSLRLSCAASGFTVSSYWMHWVRQAPGKGLEWVGFIRNKANGGTTEYAASVKGRFTISRDDSKNTLYLQMNSLRAEDTAVYYCARDRGLRFYFDYWGQGTTVTVSSASVAAPSVFIFPPSDEQLKSGTASVVCLLNNFYPREAKVQWKVDNALQSGNSQESVTEQDSKDSTYSLSSTLTLSKADYEKHKVYACEVTHQGLSSPVTKSFNRGEC
notes: huIgG1 PG-LALA CrossFab, knob-into-hole; also called P1AE3127; anti-CEA (Medi-565) / anti-CD28 (TGN1412)
The molecule B4 showed a Kd with Hu N(A2-B2)A-avi-His of 0.29 nM.
